Source: PMC6638984, “Increased association between Epstein-Barr virus EBNA2 from type 2 strains and the transcriptional repressor BS69 restricts EBNA2 activity” (PLoS Pathogens, 2019)

Molecular target: T1, BS69CC-MYND (BS69 amino acid 480–602, CC-MYND domain) (Homo sapiens, UniProt Q15326)
T1 construct: The BS69 CC-MYND domain (amino acids 480–602) was amplified from pCI-BS69; GST (N, cleaved yes); 6xHis (N, cleaved yes); made in house; host or cells: E. coli Rosetta 2 (DE3) pLysS
T1 sequence (Q15326 480-602): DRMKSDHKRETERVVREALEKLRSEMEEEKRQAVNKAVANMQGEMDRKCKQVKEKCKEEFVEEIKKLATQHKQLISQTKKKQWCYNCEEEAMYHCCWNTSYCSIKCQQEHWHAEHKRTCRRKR
Test: Isothermal titration calorimetry (ITC) of EBNA2 peptides and polypeptides binding to BS69CC-MYND
Settings: 25°C, mean ± SD of 3 independent experiments; for n value (stoichiometry of BS69CC-MYND/EBNA2 binding, monomeric proteins), one-site model: pH 7.5, polypeptides 19 x 2.0 μl injections into 0.1 mM BS69CC-MYND
Text: We hypothesised that the impaired gene activation and growth maintenance properties of type 2 EBNA2 may be the result of increased binding to BS69 as a result of the aspartate to serine amino acid difference adjacent to BS69 binding motif 2. […] We used isothermal titration calorimetry (ITC) to determine the affinity of peptide binding to the C-terminal region of BS69 (amino acid 480–602) comprising the CC-MYND domain that we expressed and purified from E.coli (Fig 1B and 1C). […] The difference in binding between type 1 and type 2 EBNA2 motif 2 peptides could be influenced by both the aspartate to serine change and differences in two other amino acids present in the sequence (Fig 1B and 1C).
The BS69 CC-MYND domain (amino acids 480–602) was amplified from pCI-BS69 containing the full length human BS69 sequence (gift from Dr Stéphane Ansieau) and cloned using SLIC into the SmaI and HindIII sites of pET49b+ to generate a construct expressing an N-terminal GST-6x Histidine tag BS69CC-MYND fusion protein (S2 Table).
Four commercially synthesized peptides (Peptide Synthetics) were used for ITC. These included BS69 binding motif 2 of type 1 EBNA2 (435–445) or type 2 EBNA2 (402–412) and putative BS69 binding motif 3 of type 1 EBNA2 (445–455) or type 2 EBNA2 (412–422).
Frozen protein was quickly thawed using running water and dialysed overnight at 4°C using Slide-A-Lyzer MINI Dialysis Units (Thermo Scientific) against ITC buffer (20mM Tris-HCl, 100mM NaCl and 1mM TCEP, pH 7.5). The next day, protein samples were centrifuged at 13000 rpm for 10 mins at 4 °C and the concentration was determined by NanoDrop spectroscopy (NanoDrop Technologies) with their respective molecular weights and extinction coefficients. EBNA2 peptides (1mM) and polypeptides (type 1, 0.3 mM and type 2, 0.6 mM) were titrated against BS69CC-MYND (0.1mM) at 25°C using a MicroCalTM iTC200 instrument (Malvern). For peptides, 13 x 3.0 μl injections were used for titration. For EBNA2 polypeptides 19 x 2.0 μl or 29 x 1.3 μl injections were used for titration. ITC data were corrected for non-specific heat and analysed using MicroCal Origin 7.0. The experiments were performed in triplicate alongside a control experiment with no BS69CC-MYND (buffer only in the cell). All polypeptides were used within 24 hrs of dialysis into ITC buffer.

[1] = pH 7.5, peptides 13 injections, polypeptides 19 injections

Row | Substance | KD (dissociation constant), one-site (one event) binding model (20mM Tris-HCl, 100mM NaCl, 1mM TCEP, pH 7.5, EBNA2 titrated into 0.1 mM BS69CC-MYND, peptides 1 mM, 13 injections, n fixed to 1, polypeptides 19 x 2.0 μl injections) | Kd (20mM Tris-HCl, 100mM NaCl, 1mM TCEP, pH 7.5, EBNA2 titrated into 0.1 mM BS69CC-MYND, peptides 1 mM, 13 injections, n fixed to 1, polypeptides 19 x 2.0 μl injections, read-out: KD (dissociation constant), one-site (one event) binding model) [nM] | -TΔS, one-site model [1] [kcal/mol] | ΔG, one-site model [1] [kcal/mol] | ΔH, one-site model [1] [kcal/mol] | n value (stoichiometry of BS69CC-MYND/EBNA2 binding, monomeric proteins), one-site model | n value (stoichiometry of BS69CC-MYND/EBNA2 binding, monomeric proteins), one-site model (listed as type 1 EBNA2_381-445)
1 | YPPSIDPADLD [T1 EBNA2 motif 3] | not able to detect any binding | – | – | – | – | – | –
2 | T1 EBNA2_381-445: type 1 EBNA2 polypeptide, amino acids 381–445, expressed and purified from E.coli | – | 950 | 18.4 ± 0.46 | -8.22 ± 0.08 | -26.6 ± 0.53 | 0.42 ± 0.02 | 0.42
